Columns and labels:
[1] = molecular target: cynomolgus monkey FcRn (cynomolgus monkey) (UniProt Q8SPV9); experiment: SPR (BIAcore 3000), IgG immobilised on CM5, FcRn injected at pH 6, steady-state 1:1 fit
[2] = molecular target: human FcRn protein (human) (UniProt P55899); experiment: as above
[3] = molecular target: cynomolgus monkey FcRn (cynomolgus monkey) (UniProt Q8SPV9); experiment: SPR (BIAcore 3000), IgG immobilised on CM5, FcRn injected; binding at pH 7.4 as a percentage of that at pH 6
[4] = molecular target: human FcRn protein (human) (UniProt P55899); experiment: as above

Sequence of cynomolgus monkey FcRn (cynomolgus monkey) (Q8SPV9 24-290 limits assumed, chain 1 of 2): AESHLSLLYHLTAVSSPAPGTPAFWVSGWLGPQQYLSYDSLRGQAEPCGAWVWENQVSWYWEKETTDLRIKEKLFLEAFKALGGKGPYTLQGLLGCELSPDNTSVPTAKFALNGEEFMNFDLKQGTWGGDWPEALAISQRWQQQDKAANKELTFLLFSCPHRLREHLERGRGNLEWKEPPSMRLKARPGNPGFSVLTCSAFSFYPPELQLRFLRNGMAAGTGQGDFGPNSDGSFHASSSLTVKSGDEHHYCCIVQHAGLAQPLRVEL
Sequence of cynomolgus monkey FcRn (cynomolgus monkey) (Q8SPW0 21-119 limits assumed, chain 2 of 2, further chain): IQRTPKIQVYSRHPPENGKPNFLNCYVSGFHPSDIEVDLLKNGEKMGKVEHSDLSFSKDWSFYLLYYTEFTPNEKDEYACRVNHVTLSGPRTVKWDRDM

Kd [1]: 1860 nM
Kd [2]: 2040 nM
pH7.4/pH6 [3]: 1%
pH7.4/pH6 [4]: 1%
Substance: NIP228 (antibody)

From patent US20160272706A1
